# Test results as given in paper PMC5559459, “Disruption of the structural and functional features of surfactant protein A by acrolein in cigarette smoke” (Scientific Reports, 2017).
# Biological target: T1, recombinant human TLR4 (hTLR4) (human, UniProt O00206 24-631)
# T1 construct: Toll-like receptor 4, human, recombinant; No catalogue number is printed; the bought protein is probably a soluble extracellular construct with a tag (surmise); source: bought: Sino Biological Inc
# Experiment: ELISA; 500 ng hTLR4 coated on 96-well plates; 5 μg SP-A in 10 mM HEPES pH 7.4, 0.15 M NaCl, 5 mM CaCl2, 2% fatty acid-free BSA, 37 °C, 5 h; detected with anti-human SP-A polyclonal antibody and HRP anti-rabbit IgG; background (vehicle) subtracted
# Settings: both partners purified
# T1 sequence (O00206 24-631): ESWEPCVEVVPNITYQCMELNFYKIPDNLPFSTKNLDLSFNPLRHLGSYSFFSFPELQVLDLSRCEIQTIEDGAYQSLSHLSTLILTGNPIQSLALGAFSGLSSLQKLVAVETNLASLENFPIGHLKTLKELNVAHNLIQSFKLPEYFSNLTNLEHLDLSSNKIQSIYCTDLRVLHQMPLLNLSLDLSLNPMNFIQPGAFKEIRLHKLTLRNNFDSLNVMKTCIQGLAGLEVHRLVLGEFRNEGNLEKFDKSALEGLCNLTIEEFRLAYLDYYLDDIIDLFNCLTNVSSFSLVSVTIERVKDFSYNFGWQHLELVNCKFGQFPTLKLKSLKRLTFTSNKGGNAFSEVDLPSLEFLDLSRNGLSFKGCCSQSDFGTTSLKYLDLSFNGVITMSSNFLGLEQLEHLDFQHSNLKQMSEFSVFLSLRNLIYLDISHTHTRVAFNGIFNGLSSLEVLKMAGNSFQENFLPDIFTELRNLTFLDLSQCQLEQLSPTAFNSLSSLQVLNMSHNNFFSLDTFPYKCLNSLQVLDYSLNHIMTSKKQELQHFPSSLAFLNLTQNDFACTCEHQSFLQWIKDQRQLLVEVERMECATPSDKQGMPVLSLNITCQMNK
row,percent decrease of binding against unmodified hSP-A,Binder
1,77.1%,"acrolein (10 µM)-modified recombinant human SP-A (natural protein, acrolein adducts (acrolein-lysine adducts, aldehyde adducts, modified free thiols); the sites were not mapped at this 2:1 ratio, pulmonary surfactant protein A, human SP-A1 cDNA expressed and secreted by CHO-K1 cells; Chemically modified form of m1; heterogeneous adducts; also called acrolein (10 μM)-modified SP-A; hSP-A pre-incubated with 10 µM acrolein; source: CHO-K1 cells, purified (mannose-Sepharose); 5 µM hSP-A incubated with 10 µM acrolein in 5 mM Tris-HCl pH 7.4 at 37 °C for 4 h, then dialyzed) not shown"
2,72.6%,"acrolein (100 µM)-modified recombinant human SP-A (natural protein, acrolein adducts; at a 20:1 molar ratio of acrolein to SP-A six modified residues were identified: His39, His116, Cys155, Lys180, Lys221, Cys224, pulmonary surfactant protein A, human SP-A1 cDNA expressed and secreted by CHO-K1 cells; Chemically modified form of m1; the sites were mapped by MS on a sample of 25 µM hSP-A with 500 µM acrolein (same 20:1 ratio); also called acrolein (100 μM)-modified SP-A; hSP-A pre-incubated with 100 µM acrolein; source: CHO-K1 cells, purified (mannose-Sepharose); 5 µM hSP-A incubated with 100 µM acrolein in …) not shown"
3,71.9%,"cigarette smoke extract (CSE)-modified recombinant human SP-A (natural protein, adducts from cigarette smoke extract (acrolein-lysine adducts, aldehyde adducts, modified free thiols); sites not mapped, pulmonary surfactant protein A, human SP-A1 cDNA expressed and secreted by CHO-K1 cells; Chemically modified form of m1; heterogeneous adducts; also called CSE-modified SP-A; hSP-A pre-incubated with CSE; source: CHO-K1 cells, purified (mannose-Sepharose); 5 µM hSP-A incubated with 10% CSE in 5 mM Tris-HCl pH 7.4 at 37 °C for 4 h, then dialyzed) not shown"
